The record followed here is publication PMC8927045, “MAP3K1 Variant Causes Hyperactivation of Wnt4/β-Catenin/FOXL2 Signaling Contributing to 46,XY Disorders/Differences of Sex Development” (Frontiers in Genetics, 2022).

In assay [1] the target is T1, RHOA-LgBiT-N (RhoA fused to LgBiT) (human (from the RefSeq entry NM_001664; …, UniProt P61586 1-193).
T1 construct: RhoA, RHOA gene (NM_001664); On which end of RhoA the LgBiT stands is not clear from the two names used; also called LgBit-RhoA-N; source: HEK293T, transfected, in cells
T1 sequence (P61586 whole entry, the tested form may be a part): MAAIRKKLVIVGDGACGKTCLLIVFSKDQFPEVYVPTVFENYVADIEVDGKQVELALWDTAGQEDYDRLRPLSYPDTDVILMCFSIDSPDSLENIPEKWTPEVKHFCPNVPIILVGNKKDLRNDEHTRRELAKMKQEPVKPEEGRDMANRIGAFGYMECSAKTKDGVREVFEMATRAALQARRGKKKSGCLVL
Kind of assay: split reporter (BiFC, NanoBiT); NanoBiT in HEK293T cells co-transfected with SmBiT and LgBiT fusion plasmids (500 ng DNA in all, 24-well plate); 24 h after transfection medium replaced by OPTI-MEM, substrate added, signal read for 30 min; negative control: SmBiT-MAP3K1 plasmid alone. To be noted: partners not purified.

A further assay concerns the target T2, RHOA-3×Flag (human (from the RefSeq entry NM_001664; …, UniProt P61586 1-193).
T2 construct: RhoA, RHOA gene (NM_001664) cloned into p3×Flag-CMV-14; also called RhoA-Flag; source: HEK293T, transfected, in lysate
The experiment in a line: co-IP; HEK293T cells co-transfected with MAP3K1-3×HA and RHOA-3×Flag; 48 h after transfection lysed in modified RIPA buffer; anti-Flag or anti-HA magnetic beads overnight at 4°C; blot with anti-HA or anti-FLAG; ratio of Co-IP to IP band intensity. Particulars: partners not purified.

T2 sequence (P61586 whole entry): as the sequence (P61586 whole entry, the tested form may be a part) above

B1: MAP3K1^R186G-SmBiT-C (R186G variant of MAP3K1 fused to SmBiT) (enzyme, human, UniProt Q13233 1-1512, looked up)
chain: MAAAAGNRASSSGFPGARATSPEAGGGGGALKASSAPAAAAGLLREAGSGGRERADWRRRQLRKVRSVELDQLPEQPLFLAASPPASSTSPSPEPADAAGSGTGFQPVAVPPPHGAASRGGAHLTESVAAPDSGASSPAAAEPGEKRAPAAEPSPAAAPAGREMENKETLKGLHKMDDRPEERMIGEKLKATCMPAWKHEWLERRNRRGPVVVKPIPVKGDGSEMNHLAAESPGEVQASAASPASKGRRSPSPGNSPSGRTVKSESPGVRRKRVSPVPFQSGRITPPRRAPSPDGFSPYSPEETNRRVNKVMRARLYLLQQIGPNSFLIGGDSPDNKYRVFIGPQNCSCARGTFCIHLLFVMLRVFQLEPSDPMLWRKTLKNFEVESLFQKYHSRRSSRIKAPSRNTIQKFVSRMSNSHTLSSSSTSTSSSENSIKDEEEQMCPICLLGMLDEESLTVCEDGCRNKLHHHCMSIWAEECRRNREPLICPLCRSKWRSHDFYSHELSSPVDSPSSLRAAQQQTVQQQPLAGSRRNQESNFNLTHYGTQQIPPAYKDLAEPWIQVFGMELVGCLFSRNWNVREMALRRLSHDVSGALLLANGESTGNSGGSSGSSPSGGATSGSSQTSISGDVVEACCSVLSMVCADPVYKVYVAALKTLRAMLVYTPCHSLAERIKLQRLLQPVVDTILVKCADANSRTSQLSISTLLELCKGQAGELAVGREILKAGSIGIGGVDYVLNCILGNQTESNNWQELLGRLCLIDRLLLEFPAEFYPHIVSTDVSQAEPVEIRYKKLLSLLTFALQSIDNSHSMVGKLSRRIYLSSARMVTTVPHVFSKLLEMLSVSSSTHFTRMRRRLMAIADEVEIAEAIQLGVEDTLDGQQDSFLQASVPNNYLETTENSSPECTVHLEKTGKGLCATKLSASSEDISERLASISVGPSSSTTTTTTTTEQPKPMVQTKGRPHSQCLNSSPLSHHSQLMFPALSTPSSSTPSVPAGTATDVSKHRLQGFIPCRIPSASPQTQRKFSLQFHRNCPENKDSDKLSPVFTQSRPLPSSNIHRPKPSRPTPGNTSKQGDPSKNSMTLDLNSSSKCDDSFGCSSNSSNAVIPSDETVFTPVEEKCRLDVNTELNSSIEDLLEASMPSSDTTVTFKSEVAVLSPEKAENDDTYKDDVNHNQKCKEKMEAEEEEALAIAMAMSASQDALPIVPQLQVENGEDIIIIQQDTPETLPGHTKAKQPYREDTEWLKGQQIGLGAFSSCYQAQDVGTGTLMAVKQVTYVRNTSSEQEEVVEALREEIRMMSHLNHPNIIRMLGATCEKSNYNLFIEWMAGGSVAHLLSKYGAFKESVVINYTEQLLRGLSYLHENQIIHRDVKGANLLIDSTGQRLRIADFGAAARLASKGTGAGEFQGQLLGTIAFMAPEVLRGQQYGRSCDVWSVGCAIIEMACAKPPWNAEKHSNHLALIFKIASATTAPSIPSHLSPGLRDVALRCLELQPQDRPPSRELLKHPVFRTTW
notes: Same construct as m1 with the patient variant; The end of the SmBiT is not clear; also called MAP3K1-Mut; p.R186G variant; source: HEK293T, transfected, in cells
Turning to B1, the “fold of the wild type's NanoBiT signal” value in assay [1] is 3.19 ± 0.18 fold of wild type.

B2: MAP3K1^R186G-3×HA (enzyme, human, UniProt Q13233 1-1512, looked up)
chain: B1 chain
notes: human MAP3K1, full-length cDNA NM_005921.2 with the patients' variant c.556A>G, cloned into pcDNA3.1(+)-3×HA; Same construct as m7 with the patient variant; also called R186G variant; source: HEK293T, transfected, in lysate
As to B2, the “fold of the wild type's ratio of Co-IP to IP signal” value with RHOA-3×Flag was determined as 2.57 times wild type.
